Laboratory results reported in patent US20250092134A1 (Janssen / Centocor, published 2025).

biological target: Vβ17 (on cells expressing Vβ17); assay: cell-based or functional assay
Sequence (A0A075B6N1 22-114): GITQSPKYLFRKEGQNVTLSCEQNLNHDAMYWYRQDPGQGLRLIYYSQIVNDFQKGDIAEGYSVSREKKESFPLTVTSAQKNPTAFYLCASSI

Row | Cell Internalization (EC50) [nM] | Binder
1 | 0.29 | 20A9A9 (antibody, V domains shown) VH: EVQLQESGPGLVQPSQSLSITCTVSGFSLTSYGVHWVRQSPGKGLEWLGIIWSAGGTDYNAAFISRLSISKDNSKSQIFFKLNSLHADDTAIYFCARGSFYDYGRLDYWGQGTTLTVSS VL: DIVMTQSHRFMSTSVGDRVSITCKASQDVSTAVAWYQQKPGQSPKLLIYSSSYRYTGVPDRFTGSGSGTDFTFTISSVQAEDLAVYYCQQHYGTPYTFGGGTKLEIQ
2 | 0.06 | 20C12A3 (antibody, V domains shown) VH: EVQLQESGAELVRPGTSVKMSCKASGYTFTHYWIDWTKQRPGHGLEWIGNIYPGGGYTNYNENFKGKATLTADKSSSTVFMQFSSLTSDDSAIYYCTRKGYYYGSDWYFDVWGTGTTVTVSS VL: STSVGDRVSITCKASQDVSTAVAWYHQKPGQSPKLLIYSASYRYTGVPDRFTGSGSGTDFTFTISSVQAEDLAVYYCQQHYTTPYTFGGGTKLEMK
3 | 15.4 | 23A9B10 (antibody, V domains shown) VH: EVQLQESGPGLVKPSQSLSLTCSVTGYSITSGYYWNWIRQFLGNKLEWMGYITYDGSNNYNPSLKDRISITRDTSKNQFFLNLNSVTTDDTATYYCARGGGYVPVWGTGTTVTVSS VL: IQMTQSPAFLSVSPGERVSFSCRASQNIGTSIHWYQQRTNGSPRLLIKYASESISGIPSRFSGSGSGTDFTLSINSVESEDFADYYCHQSHNWPTTFGAGTKLELK
